Patent US20140271701A1

Biological target: serum antibodies (IgG) of Sardinian T1D patients, Example 1 (n=34; Ab+ sera) (human)
Test: competition ELISA on MAP3865c125-133-coated plates, sera pre-adsorbed with saturating peptide

MIAVALAGL [MAP3865c125-133 peptide (…)]
percent inhibition: 57 to 89%
